Reference: the supplement of paper PMC9170038

Test system: K4 kissing-loop RNA reporter
Assay: apparent KD of K4 kissing-loop reporter; higher = weaker reporter binding
Conditions: Eterna round: R107
Method: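 RNA-MaP round R107: designed RNA switches with theophylline, tryptophan, arginine or FMN aptamers are transcribed on-chip within common flanks. They are titrated with a labelled K4 kissing-loop RNA reporter in RNA-MaP buffer (100 mM Tris pH 7.5, 80 mM KCl, 4 mM MgCl2), without ligand or with the indicated ligand. Median apparent KD per design.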

[1] = input ligand: theophylline 20 uM
[2] = input ligand: tryptophan 2.4 mM
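Further: bound reporter read as fluorescence of individual clusters on recovered sequencing chips by microscopy, with normalized cluster intensities fitted with a binding model.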

| Sequence | apparent KD of K4 kissing-loop reporter (input ligand: FMN 200 uM) [nM] | apparent KD of K4 kissing-loop reporter (input ligand: arginine 13.2 mM) [nM] | apparent KD of K4 kissing-loop reporter (input ligand: none) [nM] | apparent KD of K4 kissing-loop reporter [1] [nM] | apparent KD of K4 kissing-loop reporter [2] [nM] |
| --- | --- | --- | --- | --- | --- |
| GUUACGCAUGGAAGGAGCGCACUCCGGUUGAUCAACACAGUGAUGUUGUGGUUCAUUCGAAUGCAGGUAGGUCGCCAUGUGUAAC [Ex Arginine B K4 16] | 877 | 724 | 1100 | 858 | 825 |
| CGACUAUUUCGAUAGUCGAUAGACACGGAAGGAGCGGGAUUCGUCCCAGGUAGGUCGCCGUGAAGUUGAGUGAUGUUCAACGUGU [Arg A SS t13] | 160 | 155 | 155 | 170 | 147 |
| AAGCAGUCACUCGAAACCAUCGAAGAUGGUCGAGGACCGGUACGGCCGCCACUCGGAGUGAUGUUCCGAAGACUGCAAAAUAAAA [#SwitchBubble 10] | 313 | 334 | 286 | 277 | 751 |
| AGAUCUGUAACAGAUACCAGAGGACGAUGAUCGAACAGUGAUGUUAUCUGUUAGUCGUCGCUCCCUUGGCAGCUGUUACAGAUCA [Omei KL Theo B SS B v4] | 106 | 46.2 | 55.5 | 72.1 | 84.9 |
| GGGAAGAAGGCGGCCGCCACUGCAGAAGAGACAGAGAGAGAAGAAGAGGAGUGAUGUUCCAAGAACAGGACCGGGCCAAGAAGGG [whbob_SS_Tryp_B_t28] | 167 | 84.2 | 102 | 146 | 129 |
| UAUCUUUGCUGAAGGAGCGAGCAUGUUGGAGUGAUGUUCCGUGCGAGUGAUGUUCGCAUAGCUCAGGUAGGUCGCAGUGGGAGGA [KL-SSArg B29] | 120 | 94.7 | 105 | 157 | 86.2 |
| AUGGGUUUGGGAGGAUAUCCUUCCCACGUCGAAGUACCGUGCUUGAUGGAGUGAUGUUCGAUCAGAGGAGAAGGCCCGGAUUUAU [Same State FMN B GF21] | 754 | 612 | 845 | 806 | 536 |
| GCCGUAGAUGGAAGGAGCGUGCGUGAAGUGAUGUUUCACGAAGAGUUUUCCACCUUAUAUGCACAGGUAGGUCGCCAUCUACGGC | 114 | 99 | 100 | 105 | 95.2 |
| AAAUAAAGGGCGGCCGCCACUGAUCGCCUCCGCGUGGGUAUGUAGUGAUGUUAUAUGGCCGCCAUCAGGACCGGGCCAAAUAAAA [#10 K4 Tryptophan B Same State] | 214 | 187 | 340 | 272 | 193 |
| AAAUAAAGCAGUCACCCAGUGAUGUUGGAAGGAGCGUGCGAAAGCACAGGUAGGUCGCCAAAACCUAAUACUGGCUGCUAAAUAA [#03 K4 Arginine A Exclusion] | 242 | 357 | 285 | 307 | 177 |
| GGUUUAUAGGAGGAUACCAGUACGGAUAAAGUACGUUAAUAGUAGAGUGAUGUUCUAAAGUACCCUUGGCAGCUUAGAGUGAGUU [ExTheophylB.L] | 105 | 157 | 122 | 159 | 78.8 |
| AGGAGCGUGCGAUGUAAAUCGCACGCUCCACGAGGACCGGUACGGCCGCCACUCGCUCGUGCAGAGUGAUGUUCUGCCGGCGAAU [#2 Same State - Tryptophan A Attempt #24 (HarryS)] | 306 | 202 | 270 | 248 | 260 |
| ACAGGAUCGAAAGAUCCUGAGCAGUCAAAACGAGGACCGGUACGGCCGCCACUCGAAUAAGAGAGUGAUGUUCUCGACUGCAAAA [Omei inspired 10 - Reversed #K4Late] | 939 | 826 | 1210 | 1050 | 223 |
| AAACAUCACUGGGAGUGAUGUUCUCAGUGACGAGGACCGGUACGGCCGCCACUCGCGAGAGAACUAGUCUAGUCUUGACUGCAUU [Excl Tryptophan A V14] | 277 | 333 | 335 | 418 | 398 |
| GAAGGUCAAAGACCUUCGUGCACAACUGAUACCAGUCGCGAAAGCGACCCUUGGCAGCAGGGCAGUGAUGUUGCCAGUGCACAAA [Omei KL Theo A SS A v3] | 157 | 166 | 167 | 124 | 169 |
| AUUAAUUUCAGAGGAUAUCGUGAUUUUGUUUAAUUUAUUCAUUUGUGCAGUGAUGUUGCUAAUAUUCGAGAAGGCUGAUUUAUAA [whbob_Ex_FMNB__2th225] | 161 | 134 | 63.3 | 132 | 53.3 |
| GCGGCCCAGCCGGAUACCAGUGACCCGCUGGGAACCGCGGGCCCAGAGUGAUGUUCGGGACACCCUUGGCAGCCGCCUGGGUCGC [#2 Same State - Theophylline B Attempt #18 (HarryS)] | 689 | 274 | 928 | 684 | 320 |
| GUAUCGCUAGGAGGAUAUUUCAAAUAAUAAAUAAAUGGUUAUACGGAGUGAUGUUCCGAUUUACGGAAAGAAGGCCUAGUGAUAC [FMN B 3] | 118 | 144 | 155 | 153 | 147 |
| AACUGGGUUCGUGAUACCAGCUCACACAUGAGUGAUGUUCAUGUAGUGGGCAAAAUGUGGAGCCCUUGGCAGCACUGUGACCACG [XTheo-B2] | 81.1 | 69 | 77 | 73.3 | 78.5 |
| GCAAAACAAACGUAGAGUGGAACACAGAGACGAGGACCGGUACGGCCGCCACUCGACGAGGUUUUCAGUGAUGUUGAAAAUUUAG [Exclusion Tryptophan A GF2] | 133 | 162 | 125 | 151 | 199 |
| GGCAGUGAUGUUGCCAGUGGCAGAUUAGAAGGAGCGUGGUGAGACACAGGUAGGUCGCUAAUUGAAAUUGCUGUCACUAAAAUGC [#6] | 292 | 282 | 300 | 368 | 212 |
